Source: the supplement of paper PMC10126150
± gives the standard deviation of the averaged measurements.

Tested on: ATP
Assay: switch fluorescence ratio, 500 uM ATP over buffer (Cy3 cluster intensity, sum of 5 cycles each) (fold (ratio)); higher = stronger signal-on switching upon ATP binding; sequences stand for … in TCGTCGGCAGCGTCAGATGTGTATAAGAGACAGTTTTTTTTTTTTTTTTTTTTTTTTT…TC
Conditions: aptamer strand: ATP DNA aptamer (quencher-CACCTGGGGGAGTATTGCGGAGGAAGG + anchor), 100 nM annealed; ATP concentration: 500 uM
Outline: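 The fluorescence ratio divides summed target-cycle Cy3 intensity by summed buffer-cycle Cy3 intensity for each cluster and is averaged per switch-domain sequence. Cy3-labelled switching-strand clusters on a modified Illumina MiSeq flow-cell were annealed to 100 nM quencher-labelled ATP aptamer, then imaged in selection buffer and again after 15 min with 500 uM ATP at 22 °C. Five such cycles were run, with NaOH stripping and re-annealing between them, and clusters outside 100-1000 RFU were excluded.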
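Further: ATP exposure 15 min at 22 °C before imaging.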

Sequence	switch fluorescence ratio
TAGAAAAGGC	1.15 ± 0.21
TAGAAACTTT	1.1 ± 0.14
TAGAAATGCG	1.038 ± 0.0038
TAGAACCGGG	1.09 ± 0.024
TAGAAGGGGT	0.969 ± 0.047
TAGAAGGGTT	1 ± 0.024
TAGAATCCGG	0.979 ± 0.011
TAGAATCGGG	0.9758 ± 0.0078
TAGACAGTTT	0.993 ± 0.023
TAGACCAAAA	1.02 ± 0.017
TAGACCGGAG	1.04 ± 0.014
TAGACGGAAG	1.052 ± 0.00072
TAGACGGGCA	1.01 ± 0.015
TAGAGAAGTT	1 ± 0.015
TAGAGAATTT	0.984 ± 0.02
TAGAGATCTA	1.011 ± 0.0016
TAGAGCATTG	1 ± 0.044
TAGAGGCAGG	0.985 ± 0.018
TAGAGGGCGG	1.03 ± 0.012
TAGAGGGGCG	0.946 ± 0.065
TAGAGTAGCT	1 ± 0.035
TAGAGTGGGC	0.991 ± 0.013
TAGATAATGG	1.02 ± 0.014
TAGATAGGGA	1.01 ± 0.024
TAGATCAATG	1.02 ± 0.024
TAGATCGCTG	0.931 ± 0.028

Sequence	switch fluorescence ratio
TAGATGTTGA	0.973 ± 0.036
TAGATTCTGA	1.01 ± 0.032
TAGATTGACC	1.04 ± 0.033
TAGATTGGAG	0.987 ± 0.0072
TAGATTGGTG	0.991 ± 0.04
TAGCAACGCA	1.03 ± 0.015
TAGCAACGGG	1.03 ± 0.015
TAGCAATTAG	2.45 ± 0.031
TAGCACCATT	1.1 ± 0.072
TAGCAGACGG	1.03 ± 0.015
TAGCAGGGTG	1.14 ± 0.019
TAGCATTGGT	0.9903 ± 0.0016
TAGCCGGAGG	0.986 ± 0.018
TAGCCGGGGT	1.04 ± 0.054
TAGCCGGTTC	1.026 ± 0.01
TAGCCTGGAC	1.1 ± 0.031
TAGCCTTAGA	0.983 ± 0.02
TAGCGAAAAA	0.992 ± 0.016
TAGCGCTCTA	0.999 ± 0.024
TAGCGCTGGT	1.01 ± 0.02
TAGCGGCGGC	1.01 ± 0.016
TAGCGGGTTT	1.03 ± 0.023
TAGCGGTGTC	1.07 ± 0.021
TAGCGGTTGG	1.022 ± 0.0053
TAGCGTTTCC	1.097 ± 0.0047
TAGCTCATTA	0.979 ± 0.019

Sequence	switch fluorescence ratio
TAGCTGAAGT	0.975 ± 0.038
TAGCTGTACA	1.01 ± 0.015
TAGCTTTCGA	1.06 ± 0.031
TAGGAAGTCG	0.995 ± 0.047
TAGGACCTGT	0.9849 ± 0.0073
TAGGACGGTG	0.992 ± 0.034
TAGGACTCTC	1.01 ± 0.02
TAGGAGAAGT	0.991 ± 0.042
TAGGAGAGCC	1.03 ± 0.017
TAGGAGATGA	1 ± 0.042
TAGGAGGCTC	1.03 ± 0.014
TAGGAGGGA	1 ± 0.024
TAGGAGTGCT	0.9896 ± 0.0066
TAGGCAGATG	1.01 ± 0.02
TAGGCAGGCG	1.01 ± 0.1
TAGGCAGGGC	1.04 ± 0.11
TAGGCATTTG	1.006 ± 0.0069
TAGGCCAAGT	0.989 ± 0.026
TAGGCCCTTG	1.01 ± 0.043
TAGGCCGTTT	1 ± 0.084
TAGGCGGCAC	1.03 ± 0.046
TAGGCGGGGG	1 ± 0.02
TAGGCTACGG	1.03 ± 0.014
TAGGCTGATA	1.01 ± 0.029
TAGGCTGGGC	0.9673 ± 0.0041
TAGGCTGGGG	0.998 ± 0.023

Sequence	switch fluorescence ratio
TAGGCTTTAG	1.01 ± 0.012
TAGGGAAATC	0.983 ± 0.013
TAGGGATGGT	0.979 ± 0.022
TAGGGATGTA	1.01 ± 0.016
TAGGGCAACG	1.04 ± 0.025
TAGGGCACCC	0.988 ± 0.058
TAGGGCAGAG	0.994 ± 0.021
TAGGGCCAGC	1.04 ± 0.033
TAGGGCCCGG	1.03 ± 0.077
TAGGGCGCCG	1.0192 ± 0.00067
TAGGGCTCAG	0.9928 ± 0.0098
TAGGGCTGGG	0.972 ± 0.048
TAGGGGAAGC	0.989 ± 0.031
TAGGGGAGAT	1.027 ± 0.0098
TAGGGGAGGG	1.03 ± 0.041
TAGGGGCACA	1.01 ± 0.033
TAGGGGGCTA	0.995 ± 0.027
TAGGGGGCTG	1.01 ± 0.02
TAGGGGGGAG	0.981 ± 0.024
TAGGGGGGGC	0.978 ± 0.022
TAGGGGGTAT	1.02 ± 0.019
TAGGGGTA	1.01 ± 0.021
TAGGGGTAGC	0.985 ± 0.04
TAGGGGTGAG	1.04 ± 0.021
TAGGGGTGGC	0.956 ± 0.099
TAGGGTCACG	0.99721 ± 0.00082

Sequence	switch fluorescence ratio
TAGGGTCTCA	1 ± 0.031
TAGGGTGGG	1.024 ± 0.0028
TAGGGTGTGT	0.952 ± 0.016
TAGGGTTCAA	0.989 ± 0.02
TAGGGTTGGC	0.969 ± 0.013
TAGGGTTGGT	1.01 ± 0.046
TAGGGTTTTG	1.01 ± 0.042
TAGGGTTTTT	1.03 ± 0.038
TAGGTAACCG	0.943 ± 0.056
TAGGTAGGAG	1 ± 0.031
TAGGTAGTGG	1.01 ± 0.027
TAGGTATATT	0.97 ± 0.019
TAGGTCATAT	1 ± 0.022
TAGGTCATGG	0.985 ± 0.011
TAGGTCCCTG	0.99 ± 0.042
TAGGTCCTGG	0.9888 ± 0.0074
TAGGTCTTAA	0.995 ± 0.013
TAGGTGAAAC	0.988 ± 0.016
TAGGTGCCTT	1.006 ± 0.0053
TAGGTGGGAT	1.05 ± 0.038
TAGGTTAACT	0.956 ± 0.024
TAGGTTACGG	0.984 ± 0.024
TAGGTTAGTG	0.951 ± 0.01
TAGGTTCTTT	0.995 ± 0.022
TAGGTTGTAT	0.978 ± 0.018
TAGGTTTAAA	0.991 ± 0.039

Sequence	switch fluorescence ratio
TAGGTTTCTT	1.01 ± 0.031
TAGGTTTGGG	0.962 ± 0.025
TAGTAAGGGA	1 ± 0.031
TAGTAAGGGC	1.02 ± 0.033
TAGTAATCGA	1.02 ± 0.018
TAGTACTGCT	1.02 ± 0.015
TAGTAGAGCT	1.009 ± 0.002
TAGTAGGAGT	1.02 ± 0.035
TAGTAGGCCA	1.01 ± 0.055
TAGTAGGGTG	1.03 ± 0.036
TAGTATGGGT	0.9692 ± 0.0077
TAGTATGTGG	0.9612 ± 0.0025
TAGTATTACC	0.9943 ± 0.0081
TAGTCAGCC	1.01 ± 0.029
TAGTCAGGGG	0.9852 ± 0.0041
TAGTCATATC	1.01 ± 0.032
TAGTCATTAA	1.002 ± 0.0028
TAGTCGAGAC	1.01 ± 0.018
TAGTCGTTAG	1 ± 0.037
TAGTCTACGA	1.03 ± 0.026
TAGTCTATCG	0.969 ± 0.025
TAGTGAAAGA	0.9855 ± 0.0031
TAGTGCAATA	1.6994 ± 0.00043
